Data reported in PMC2654577.
Read-outs that look alike come from different tables or passages of the source.

Experiments:
Experiment in all cases: enzyme inhibition kinetics
[1] = target: factor XIa catalytic domain R173A (human) (UniProt P03951)
[2] = target: factor XIa catalytic domain K179A (human)
[3] = target: factor XIa catalytic domain K175A (human)
[4] = target: factor XIa catalytic domain K170A (human) (UniProt P03951)
[5] = target: full-length factor XIa autolysis loop variant fXIa-144-149A (human)
[6] = target: factor Xa mutants with substitutions for basic residues in the autolysis loop
[7] = target: wild type recombinant factor XIa, full length (human)
[8] = target: factor XIa catalytic domain K179A (human); remark: listed apart in the source
[9] = target: recombinant wild type factor XIa catalytic domain (human) (UniProt P03951)
[10] = target: factor XIa catalytic domain K175A (human); remark: listed apart in the source
[11] = target: full-length factor XIa autolysis loop variant fXIa-144-149A (human); remark: listed apart in the source
[12] = target: factor XIa catalytic domain with residues 170, 171 and 173 changed to alanine (human) (UniProt P03951)
[13] = target: factor XIa catalytic domain R173A (human) (UniProt P03951); remark: listed apart in the source
[14] = target: factor XIa catalytic domain R171A (human) (UniProt P03951)
[15] = target: factor XIa catalytic domain K179A (human); remark: listed apart in the source
[16] = target: factor XIa catalytic domain K175A (human); remark: listed apart in the source
[17] = target: factor XIa catalytic domain K170A (human) (UniProt P03951); remark: listed apart in the source
[18] = target: full-length factor XIa autolysis loop variant fXIa-144-149A (human); remark: listed apart in the source

k2 (second-order inhibition rate constant) [1]: 9100 M⁻¹ s⁻¹
k2 (second-order inhibition rate constant) [2]: 8800 M⁻¹ s⁻¹
k2 (second-order inhibition rate constant) [3]: 7300 M⁻¹ s⁻¹
k2 (second-order inhibition rate constant) [4]: 10000 M⁻¹ s⁻¹
k2 (second-order inhibition rate constant) [5]: 19500 M⁻¹ s⁻¹
fold effect of heparin on inhibition [6]: 4 fold
k2 (second-order inhibition rate constant) [7]: 536000 M⁻¹ s⁻¹
k2 (second-order inhibition rate constant) [8]: 778000 M⁻¹ s⁻¹
k2 (second-order inhibition rate constant) [9]: 750000 M⁻¹ s⁻¹
k2 (second-order inhibition rate constant) [10]: 730000 M⁻¹ s⁻¹
k2 (second-order inhibition rate constant) [11]: 20600 M⁻¹ s⁻¹
k2 (second-order inhibition rate constant) [12]: 430000 M⁻¹ s⁻¹
k2 (second-order inhibition rate constant) [13]: 1300 M⁻¹ s⁻¹
k2 (second-order inhibition rate constant) [14]: 600 M⁻¹ s⁻¹
k2 (second-order inhibition rate constant) [15]: 1100 M⁻¹ s⁻¹
k2 (second-order inhibition rate constant) [16]: 1000 M⁻¹ s⁻¹
k2 (second-order inhibition rate constant) [17]: 1200 M⁻¹ s⁻¹
k2 (second-order inhibition rate constant) [18]: 19200 M⁻¹ s⁻¹
B1: C1-inhibitor (natural protein)
chain: NPNATSSSSQDPESLQDRGEGKVATTVISKMLFVEPILEVSSLPTTNSTTNSATKITANTTDEPTTQPTTEPTTQPTIQPTQPTTQLPTDSPTQPTTGSFCPGPVTLCSDLESHSTEAVLGDALVDFSLKLYHAFSAMKKVETNMAFSPFSIASLLTQVLLGAGENTKTNLESILSYPKDFTCVHQALKGFTTKGVTSVSQIFHSPDLAIRDTFVNASRTLYSSSPRVLSNNSDANLELINTWVAKNTNNKISRLLDSLPSDTRLVLLNAIYLSAKWKTTFDPKKTRMEPFHFKNSVIKVPMMNSKKYPVAHFIDQTLKAKVGQLQLSHNLSLVILVPQNLKHRLEDMEQALSPSVFKAIMEKLEMSKFQPTLLTLPRIKVTTSQDMLSIMEKLEFFDFSYDLNLCGLTEDPDLQVSAMQHQTVLELTETGVEAAAASAISVARTLLVFEVQQPFLFVLWDQQHKFPVFMGRVYDPRA
